Reference: US20110229406A1 (U3 PHARMA, published 2011)
Numbering of substitutions follows the chain as printed.

B1: U1-49 (antibody, human IgG1, V domains shown)
VH: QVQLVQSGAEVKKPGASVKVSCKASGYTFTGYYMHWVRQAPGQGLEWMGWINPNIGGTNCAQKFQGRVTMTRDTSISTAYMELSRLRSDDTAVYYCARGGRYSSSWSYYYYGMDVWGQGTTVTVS
VL: DILMTQTPLSLSVTPGQPASISCKSSQSLLLSDGGTYLYWYLQKPGQPPQLLIYEVSNRFSGVPDRFSGSGSGTDFTLKISRVEAEDVGVYYCMQSMQLPITFGQGTRLEIK
notes: also called human IgG1 HER-3 mAb, U1-49
B2: U1-53 (antibody, V domains shown)
VH: EVQLVESGGGLVQPGGSLRLSCAASGFTFSIYSMNWVRQAPGKGLEWVSYISSSSSTIYYADSVKGRFTISRDNAKNSLYLQMNSLRDEDTAVYYCARDRGDFDAFDIWGQGTMVTVSS
VL: DIQMTQSPSSLSASVGDRVTITCQASQDITNYLNWYQQKPGKAPKLLIYDASNLETGVPSRFSGSGSGTDFTFTISSLQPEDIATYNCQQCENFPITFGQGTRLEIK
notes: also called mAb U1-53
B3: U1-51 (antibody, V domains shown)
VH: QVQLQESGPGLVKPSETLSLTCTVSGGSISSYYWSWIRQPPGKGLEWIGYIYYSGSTNYNPSLKSRVTISVDTSKHQFSLKLSSVTAADTAVYYCARDSSYYDSSGYYLYYYAMDVWGQGTTVTVS
VL: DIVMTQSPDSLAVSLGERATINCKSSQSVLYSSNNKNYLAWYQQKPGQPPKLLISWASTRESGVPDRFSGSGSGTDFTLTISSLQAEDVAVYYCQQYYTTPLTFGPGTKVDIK
B4: U1-47 (antibody, V domains shown)
VH: QVQLQQSGPGLVKPSQTLSLTCAISGDSVSSNSAAWNWIRQSPSRGLEWLGRTYYRSKWYNDYAVSVKSRITINPDTSKNQFSLQLNSVTPEDTAVYYCARDYYGSGSFYYYYGMDVWGQGTTVTVS
VL: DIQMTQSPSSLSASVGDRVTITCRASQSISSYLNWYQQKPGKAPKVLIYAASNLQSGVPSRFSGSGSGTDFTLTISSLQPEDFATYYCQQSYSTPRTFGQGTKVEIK
B5: U1-41 (antibody, V domains shown)
VH: QVQLQESGPGLVKPSQTLSLTCTVSGGSISSGGYYWSWIRQHPGKGLEWIGYIYYSGSTYYNPSLKSRVTISVDTSKNQFSLKLSSVTAADTAVYFCARDRELEGYSNYYGVDVWGQGTTVTVS
VL: DIQMTQSPSSLSASVGDRVTITCRASQAISNYLNWYQQKPGKAPKLLIYAASSLQSGVPSRFSGSGSGTDFTLTISSLQPEDFATYYCQQNNSLPITFGQGTRLEIK
B6: U1-55.1 (antibody, V domains shown)
VH: QVQLQESGPGLVKPSETLSLTCTVSGGSVSSGGYYWNWIRQPPGKGLEWIGYINYSGSTNYNPSLKSRVTISVDTSKNQFSLKLSSVTAADTAVYYCARDRELELYYYYYGMDVWGQGTTVTVS
VL: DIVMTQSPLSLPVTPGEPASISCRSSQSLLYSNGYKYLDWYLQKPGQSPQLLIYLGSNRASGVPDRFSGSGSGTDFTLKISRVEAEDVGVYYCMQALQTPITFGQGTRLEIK
B7: U1-58 (antibody, V domains shown)
VH: QVQLVESGGGVVQPGRSLRLSCAASGFTFSSYGMHWVRQAPGKGLEWVAVIWYDGSNKYYADSVKGRFTISRDNSKNTLYLQMNSLRAEDTAVYYCARAARLDYYYGMDVWGQGTTVTVSS
VL: DIQMTQSPSSLSASVGDRVSITCRASQSINSYLNWFQQKPGKAPQLLIFGASGLQSGVPSRFSGSGSGTDFTLTINSLQPEDFATYYCQQSYSSPLTFGQGTRLEIK
B8: U1-24 (antibody, V domains shown)
VH: QVQLQESGPGLVKPSQTLSLTCTVSGGSISSGDYYWSWIRQHPGKGLEWIGYIYYSGSTYYNPSLKSRVTISVDTSKNQFSLKLSSVTAADTAVYYCARADYDFWNGYFDYWGQGTLVTVSS
VL: DIQMTQSPSSLSASVGDRVTITCRASQGIRNDLGWYQQKPGKAPKRLIYAASSLQSGVPSRFSGSGSGTEFTLTISSLQPEDFATYYCLQHNNYPWTFGQGTKVEIK
B9: U1-7 (antibody, V domains shown)
VH: B8 VH with N106S
VL: B8 VL with I2F, G28D, Q37R, N93S
B10: U1-62 (antibody)
chain 1: EVQLVQSGAEVKKPGESLKISCKGSGYSFTSYWIGWVRQMPGKGLEWMGIIYPGDSDTRYSPSFQGQVTMSADKSISTAYLQLSSHEGLGHRHVLLCETDGWKLRTSRVIETSWGQGTTVTVS
chain 2: not shown
B11: U1-43 (antibody, V domains shown)
VH: QVQLQESGPGLVKPSQTLSLTCTVSGGSISSGGYYWSWIRQHPGKGLEWIGYIYYSGSTYYNPSLRSRVTISVDTSKNQFSLKLSSVTAADTAVYYCARDREREWDDYGDPQGMDVWGQGTTVTVS
VL: DIQMTQSPSSLSASVGDRVTITCRASQSISSYLHWYQQKPGKAPKLLIHAASSLQSGVPSRFSGSGSGTDFTLTISSLQPEDFATYYCQQSYSNPLTFGGGTKVEIQ
B12: U1-61 (antibody, V domains shown)
VH: QVQLQESGPGLVKPSQTLSLTCTVSGVSISSGGYYWSWIRQHPGMGLEWIGYIYYSGSTYYNPSLKSRVTISEDTSKNQFSLKLSSVTAADTAVYYCARDSESEYSSSSNYGMDVWGQGTTVTVS
VL: B11 VL with V19I, S28T, H34N, H49Y, S56G, G66V, I75V, Q107K
B13: U1-44 (antibody, V domains shown)
VH: EVQLVQSGAEVKKPGESLKISCKGSGYSFTSYWIGWVRQMPGKGLEWMGIIWPGDSDTIYSPSFQGQVTISADKSISTAYLQWSSLKASDTAMYYCARHENYGDYNYWGQGTLVTVSS
VL: B11 VL with S30R, H34N, K42N, H49Y, T85L, Y92I, N94S, Q107K
B14: U1-59 (antibody, human IgG1, V domains shown)
VH: QVQLQQWGAGLLKPSETLSLTCAVYGGSFSGYYWSWIRQPPGKGLEWIGEINHSGSTNYNPSLKSRVTISVETSKNQFSLKLSSVTAADTAVYYCARDKWTWYFDLWGRGTLVTVSS
VL: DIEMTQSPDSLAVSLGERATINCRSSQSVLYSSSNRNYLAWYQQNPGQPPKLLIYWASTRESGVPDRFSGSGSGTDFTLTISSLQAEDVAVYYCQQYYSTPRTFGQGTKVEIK
notes: human IgG1 (gamma 1 constant) with human kappa constant region; also called mAb U1-59; IgG1 mAb consisting of the VH4-34 and the B3 kappa chain
B15: U1-39 (antibody, V domains shown)
VH: EVQLVESGGGLIQPGGSLRLSCAASGFTVSSNYMSWVRQAPGKGLDWVSVIYSGGSTYYADSVKGRFTISRDNSKNTLYLQMNSLRAEDTAVYYCARGQWLDVWGQGTTVTVSS
VL: DIVMTQSPLSLPVTPGEPASISCRSSQSLLHSNGYNYLDWYLQRPGQSPQLLFYLGFHRASGVPDRFSGSGSGTDFTLKISRVEAEDVGVYYCRQALQTPLTFGGGTKVEIK

molecular target: T1, reduced, denatured HER-3-His tagged purified ECD protein (human, UniProt P21860 20-643); assay: dot blot of reduced, denatured HER-3-His ECD
T1 construct: extracellular domain; Same protein as m2, but reduced and denatured (disulfide bonds broken); not shown: His tag

Binder	binding result
B1	no binding
B2	no binding

molecular target: T2, HER-3 (human, on cells) (human, UniProt P21860 20-1342); assay: indirect FACS Scatchard analysis on cells
T2 construct: whole, on cells; also called ErbB3; HER-3+ cell lines
Procedure: Therefore, 10⁵ cells of interest or SK-Br 3 cells were harvested with 10 mM EDTA in PBS, washed once with FACS buffer (PBS, 3% FCS, 0.4% azide) and seeded on a 96-well round bottom plate. The cells were spun for 3 min at 1000 rpm to remove supernatant and then resuspended with α-HER-3 antibody (3 μg/ml) or with antibody dilutions (100 μl/well) starting with 20 μg/ml human monoclonal antibody in FACS buffer, diluted in 1:2 dilution steps. Cell suspensions were incubated on ice for 1 hr, washed twice with FACS buffer and resuspended with secondary antibody (100 μl/well) donkey-anti-human-PE (Jackson) diluted 1:50 in FACS buffer. The cell suspensions were incubated on ice and in the dark for 30 min, washed twice with FACS buffer and analyzed (FACS, Beckman Coulter). According to the FACS Scatchard analysis, the fluorescence mean was calculated for each measurement. Background staining (=without 1st antibody) was subtracted from each fluorescence mean. Scatchard plot with x-value=fluorescence mean and y-value=fluorescence mean/concentration of mAb (nM) was generated.

Binder	Kd
B3	132 nM
B4	9.38 nM
B5	0.18 nM
B1	1 nM
B6	3.7 nM
B7	6.4 nM
B8	0.06 nM
B9	0.02 nM
B10	20.4 nM
B11	0.57 nM
B12	0.13 nM
B13	4 nM
B2	0.082 nM
B14	3.69 nM
B15	102 nM

molecular target: T3, rat HER-3 ECD (V5-His fusion protein) (rat, UniProt Q62799 20-643); assay: ELISA, column Rat XR (XR = cross-reactive)
T3 construct: extracellular domain; not shown: V5-His tag
T3 sequence (Q62799 20-643): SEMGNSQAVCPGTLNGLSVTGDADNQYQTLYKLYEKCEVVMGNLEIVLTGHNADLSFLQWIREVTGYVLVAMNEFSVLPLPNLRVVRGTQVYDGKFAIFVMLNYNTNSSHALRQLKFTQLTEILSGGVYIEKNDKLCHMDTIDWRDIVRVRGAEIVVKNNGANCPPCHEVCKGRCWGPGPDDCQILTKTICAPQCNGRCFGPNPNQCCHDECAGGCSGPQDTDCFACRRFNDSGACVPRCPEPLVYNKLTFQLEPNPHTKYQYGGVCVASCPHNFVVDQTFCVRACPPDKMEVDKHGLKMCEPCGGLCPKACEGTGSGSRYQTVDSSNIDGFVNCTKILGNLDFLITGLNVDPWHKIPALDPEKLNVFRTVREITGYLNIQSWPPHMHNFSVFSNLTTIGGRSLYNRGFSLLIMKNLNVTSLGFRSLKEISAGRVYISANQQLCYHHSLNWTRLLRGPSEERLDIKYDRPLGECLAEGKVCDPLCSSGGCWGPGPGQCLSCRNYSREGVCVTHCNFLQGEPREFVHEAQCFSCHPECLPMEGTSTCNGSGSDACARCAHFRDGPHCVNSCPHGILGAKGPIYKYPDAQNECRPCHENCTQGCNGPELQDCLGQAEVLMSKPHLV

Binder	binding result
B1	no binding
B2	no binding
B14	binds
